Data: article doi:10.1101/2021.01.12.426394
Where no end group is shown, it is not given here.

What was measured:
[1] = target: honeybee tachykinin-related peptide receptor, FLAG-TRPR expressed in HEK293 cells (Apis mellifera); experiment: competitive binding of a fluorescent ligand on cells
[2] = target: honeybee tachykinin-related peptide receptor, FLAG-TRPR expressed in Sf21 cells (Apis mellifera); experiment: as above

## APMGFQGMR-NH2 [tachykinin-related peptide 3 (TRP3), unlabeled]
[1]
  IC50: 6.29 nM
[2]
  IC50: 34.9 nM

## ALMGFQGVR-NH2 [tachykinin-related peptide 2 (TRP2), unlabeled]
[1]
  IC50: 2.34 nM
[2]
  IC50: 8.76 nM
